Data as given in patent publication WO1994029351A2.

Assays:
[1] = target: Purified human C1q (Sigma UK) (human) (UniProt P02745); assay: cell-based or functional assay
[2] = target: FcγRIII on human peripheral blood mononuclear effector cells (human) (UniProt P08637); assay: cell-based or functional assay
[3] = target: guinea pig complement (serum); assay: cell-based or functional assay
[4] = target: FcγRI on IFNγ stimulated U937 cells (UniProt P12314); assay: 50% inhibition of binding of FITC-labelled mouse lgG2a antibody to U937 cells, FACS
Chain of FcγRI on IFNγ stimulated U937 cells (P12314 16-374 limits assumed): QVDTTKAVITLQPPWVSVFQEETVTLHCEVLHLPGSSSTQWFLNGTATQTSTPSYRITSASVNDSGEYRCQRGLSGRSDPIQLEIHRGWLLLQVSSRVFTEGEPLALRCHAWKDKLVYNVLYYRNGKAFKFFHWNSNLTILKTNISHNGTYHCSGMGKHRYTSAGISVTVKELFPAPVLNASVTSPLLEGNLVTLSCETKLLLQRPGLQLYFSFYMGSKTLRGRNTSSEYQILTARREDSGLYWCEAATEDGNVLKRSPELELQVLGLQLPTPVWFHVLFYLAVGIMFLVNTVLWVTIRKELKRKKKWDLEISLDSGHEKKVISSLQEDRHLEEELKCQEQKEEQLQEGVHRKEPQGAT

Chain of Purified human C1q (Sigma UK) (human) (P02745 23-245 limits assumed, chain 1 of 3): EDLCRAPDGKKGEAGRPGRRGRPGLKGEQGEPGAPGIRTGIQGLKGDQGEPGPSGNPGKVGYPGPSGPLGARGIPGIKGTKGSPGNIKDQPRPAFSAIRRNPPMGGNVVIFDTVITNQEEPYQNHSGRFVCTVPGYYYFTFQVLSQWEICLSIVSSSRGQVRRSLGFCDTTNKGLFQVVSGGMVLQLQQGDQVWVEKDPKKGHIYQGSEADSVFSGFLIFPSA
Chain of Purified human C1q (Sigma UK) (human) (P02746 28-253 limits assumed, chain 2 of 3, further chain): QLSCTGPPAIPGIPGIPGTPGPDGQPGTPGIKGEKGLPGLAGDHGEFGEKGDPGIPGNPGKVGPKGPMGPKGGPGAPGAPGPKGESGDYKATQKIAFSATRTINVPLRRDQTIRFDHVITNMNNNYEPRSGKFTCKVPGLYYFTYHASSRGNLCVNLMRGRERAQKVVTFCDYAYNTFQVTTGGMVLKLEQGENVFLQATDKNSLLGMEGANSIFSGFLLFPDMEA
Chain of Purified human C1q (Sigma UK) (human) (P02747 29-245 limits assumed, chain 3 of 3, further chain): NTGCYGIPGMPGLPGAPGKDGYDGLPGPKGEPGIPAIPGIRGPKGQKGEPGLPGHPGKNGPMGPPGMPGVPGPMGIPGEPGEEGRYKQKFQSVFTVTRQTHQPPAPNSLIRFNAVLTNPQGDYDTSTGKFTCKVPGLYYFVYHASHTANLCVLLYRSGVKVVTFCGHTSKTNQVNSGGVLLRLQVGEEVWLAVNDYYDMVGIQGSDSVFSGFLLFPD
Chain of FcγRIII on human peripheral blood mononuclear effector cells (human) (P08637 17-254): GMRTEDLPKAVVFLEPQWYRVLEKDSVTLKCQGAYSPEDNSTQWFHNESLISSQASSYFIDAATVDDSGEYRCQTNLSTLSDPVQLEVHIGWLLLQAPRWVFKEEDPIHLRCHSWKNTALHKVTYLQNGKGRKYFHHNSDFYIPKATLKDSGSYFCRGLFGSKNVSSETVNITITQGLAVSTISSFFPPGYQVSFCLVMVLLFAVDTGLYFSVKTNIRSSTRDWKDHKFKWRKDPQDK

Substance | mg/ml antibody necessary for half maximal cell killing by human complement [1] [mg/mL] | percent plateau cell killing by human complement [1] [%] | ng/ml antibody necessary for half maximal cell killing in ADCC [2] [ng/mL] | plateau level killing with guinea pig complement [3] [%] | maximum cell killing by human complement [1] [%] | IC50 [4] [µg/mL] | maximum killing in ADCC [2] [%] | ng/ml antibody necessary for half maximal cell killing in ADCC (extrapolated value) [2] [ng/mL]
chimeric L243 G1[G237A] (from UniProt P01857 1-330; P01834 1-107) (antibody) | 2 | 20 |  |  |  |  |  | 
chimeric L243 G1[K320A] (from UniProt P01857 1-330; P01834 1-107) (antibody) | 0.6 | 70 | 10 |  |  |  |  | 
chimeric L243 G1[L235A] (from UniProt P01857 1-330; P01834 1-107) (antibody) | > 20 | 0 | 9 | 49 |  |  |  | 
chimeric L243 G1[L235E] (from UniProt P01857 1-330; P01834 1-107) (antibody) | > 20 | 0 |  | 40 |  |  |  | 
chimeric L243 G4[L235E] (from UniProt P01861 1-327; P01834 1-107) (antibody) | > 20 | 0 | > 100000 |  |  |  |  | 
chimeric L243 human lgG1 wild type (from UniProt P01857 1-330; P01834 1-107) (antibody) | 0.6 | 65 |  | 80 | 64 | 130 |  | 
chimeric L243 human lgG2 (from UniProt P01859 1-326; P01834 1-107) (antibody) | > 20 | 0 | > 100000 |  |  |  |  | 
chimeric L243 human lgG4 (from UniProt P01861 1-327; P01834 1-107) (antibody) | > 20 | 0 |  |  |  | 1200 | 20 | 10000
